Laboratory results reported in publication PMC11661447.

Biological target: RNA-dependent RNA polymerase (RdRp) of HuNoV GII.4 Sydney strain (human norovirus GII.4 Sydney strain)
Assay: SEC + AUC; purified RdRp alone, physiologically relevant conditions (pH 7.5); sedimentation velocity of 10 μM RdRp at 40,000 rpm, 22°C; monomer, dimers and higher-order oligomers

RNA-dependent RNA polymerase (RdRp) of HuNoV GII.4 Sydney strain (enzyme)
percent as dimers: 15% | percent as monomer: 75% | stoichiometry N: 2
